# Experimental data from the supplement of paper PMC9170038.
# Tested on: MS2 coat protein
# Assay: apparent KD of MS2 coat protein; designed switch direction (-1 OFF switch, 1 ON switch): -1; higher = weaker reporter binding
# Outline: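 Designed RNA switches with common flanks were made on Illumina chips by stalled E. coli RNA polymerase. Titration with SNAP-549-labelled MS2 coat protein doubled from 0.7 or 1.5 nM up to 3 µM. Apparent KD is each design's median over clusters after curve-fitting normalised fluorescence.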
# [1] = Eterna round: R95, input ligand: FMN 200 uM
# [2] = Eterna round: R95, input ligand: microRNA oligo, concentration not stated
# [3] = Eterna round: R95, input ligand: none
# [4] = input ligand: microRNA oligo, concentration not stated
Sequence,apparent KD of MS2 coat protein [1] [nM],apparent KD of MS2 coat protein [2] [nM],apparent KD of MS2 coat protein [3] [nM],apparent KD of MS2 coat protein (input ligand: FMN 200 uM) [nM],apparent KD of MS2 coat protein [4] [nM],apparent KD of MS2 coat protein (input ligand: none) [nM]
CUGGUCCGAGGAUAUAUGAUGUGAAACAUGAGGAUCACCCAUGUAAUAUUAUGGAAGAAAAUAGAAGGCGGACUAG [Mat - Exclusion 5 - JL mod - D38] (puzzle: Exclusion 5),37.2,64.3,71.5,–,–,–
CAUGUCUGAGGAUAUCGUUAUUUGUACAUGAGGAUCACCCAUGUCCUAUUUAUUAUAUUUCGAGAAGGCAGUGUAU [JR_E5_Sub093] (puzzle: Exclusion 5),–,15.6,–,–,–,–
"ACAUGAGGAUCACCCAUGUACAGGGUUUAGUUUCAUCGUUUGAAGGAUAUACACUGUUAGUUGUCGUAGAAGGUCACUGAUUGG [JR_ExcNG3_Sub010] (Eterna round: R96, puzzle: Exclusion NG 3)",–,–,–,93.9,93.3,130
"AGCCCUGCAGGAUAUGCCGAGGAUAACAUGAGGAUCACCCAUGUGACCGAUUGUUAGACUGCAGAAGGGCAUGGGA [salish99_ex5_r4_303] (Eterna round: R97, puzzle: Exclusion 5)",–,–,–,81.7,–,509
"GAUCCUUUUACGGACGUCUCGAAACAUGAGGAUCACCCAUGUGAGGAUAUCUCCGAAAGGUCGGCAGAGAAGGCACAAUAACAA [MOD2 Eternabot solution 19 score 84.66] (Eterna round: R96, puzzle: Exclusion NG 3)",–,–,–,29.4,13,18.7
"AGUACUAACACGCCUGUGUUAGUACAAUAAGCUUGUGAAACAUGAGGAUCACCCAUGUCCUCAUAAGCUCGUCUUAU [salish99_TOv2_r3_077] (puzzle: Sensor v3, turn-off variant 2)",16.3,671,15.4,–,–,–
"AUGUGCACGCUGCGGUCCUACAUGAGGAUCACCCAUGUGGUCUGGUGGCGUGGGUCACCGGACUUGGCUCGUCUUGC [salish99_S_TOV1_R5_058] (Eterna round: R97, puzzle: Sensor, turn-off variant 1)",–,–,–,21.4,–,21.2
"UAAAGUAUAUAGGAUAUCUAGCUGGUAACAGCUAGAGAAGGAUGUACAUGAGGAUCACCCAUGUAGAUCUCAAA [Ex6/15-A3] (Eterna round: R97, puzzle: Exclusion 6)",–,–,–,19.3,–,12.8
"CAGUACUGCAGGCUUUGGGACAUGAGGAUCACCCAUGUUCGUCUUAUUGAUCUAGGUACGCUGACGUACCUAGAUCU [JL-sv1-2.14 Brourd mod] (puzzle: Sensor v3, turn-off variant 1)",18.8,20,17.6,–,–,–
GAAAAGGUAGGAUAUACGAAAAAAAAGGGUAGUAAAAAAACACAUGAGGAUCACCCAUGUAGAAGGACCAAAAG [salish99_ex2_r3_079] (puzzle: Exclusion 2),35.7,20.9,18.6,–,–,–
"GGUUAGCGAGGAUAUACAUGAGGAUCACCCAUGUGAUCCUAAGGCUGAUCAAGCCUAUGUAGAAGGCGCAAAUC [salish99_ex3_r4_008] (Eterna round: R97, puzzle: Exclusion 3)",–,–,–,40.1,–,227
"UGACGUCAUGUCAGGAUAUAGGCGAUGCGUGUCUUCUAGAAGGGACAUGAGGAUCACCCAUGUAAACUUUUGGU [Eternabot (L1) Solution 56] (Eterna round: R97, puzzle: Brourd's mod of Exclusion 4)",–,–,–,136,–,148
"UGUUGUUGCGCAGGAUAUUGCCAACAGGCAGUAGGAUAUCCGAAAGGAGAAGGACCGCCAACAGGCGAGAAGGGCGGGACAACU [pwkr exNG2 2xF7 2xFMN.12] (Eterna round: R96, puzzle: Exclusion NG 2)",–,–,–,93.9,44.5,64.3
"GGUUGGCGAGGAUAUACAUGAGGAUCACCCAUGUGGUCCUGUGGCUGAUCUAGCCUAUGUAGAAGGCGCAAAUC [salish99_ex3_r4_013] (Eterna round: R97, puzzle: Exclusion 3)",–,–,–,311,–,139
GGUCUGCGAGGAUAUACAUGAGGAUCACCCAUGUGCGAGAAACUAGUGAGGUCGAUUGGUAGAAGGCGCGGACG [Mat - Exclusion 3 - Mod of JL D83] (puzzle: Exclusion 3),74.1,113,210,–,–,–
"AGAUCUAGGACAGGAUAUAUAGAUGGCUUCAUCGAAGAUGAAGCCAUUACAUGAGGAUCACCCAUGUAGAAGGGUCCUAGAUCA [Omei Exc(NG) 2Av7] (Eterna round: R96, puzzle: Exclusion NG 2)",–,–,–,11.2,14.3,16.1
"AGAGUGCUGCGAGGAUAUACAUGAGGAUCACCCAUGUUUUCCUGUGAGGCAAAGCCUCACAGGAUGUAGAAGGCGCAGUACUCA [Mat - Exclusion NG 2 - Mod of JL - D39] (Eterna round: R96, puzzle: Exclusion NG 2)",–,–,–,13.9,11.1,17.7
"UUUGGCAGAGGAUAUACAUGAGGAUCACCCAUGUAUAAGUGGGAUGCGUGCAAAUACUGUAGAAGGCUGCCUCU [Eternabot (L2) Solution 66] (Eterna round: R97, puzzle: Exclusion 3)",–,–,–,50.1,–,73
AUAAAGCGAGGAUAUACAUGAGGAUCACCCAUGUGGCAGCCAGGUAGGAGUGACGUCGGUAGAAGGCGCACCCU [Quleraer] (puzzle: Exclusion 3),–,24.2,–,–,–,–
"AGCUGUGGCCGAGGAUAUACAUGAGGAUCACCCAUGUUACAUAAUUAGGCCGGGUAACCGGCUCCGUAGAAGGCGGUCUCAGCA [Eli eng2 - 004] (Eterna round: R96, puzzle: Exclusion NG 2)",–,–,–,14.3,11.7,13.7
CUCAUGUCAGGAUAUUAAGUCCGUAGCCUAUGGCUGCAACAUGAGAAGGGACAUGAGGAUCACCCAUGUCGGGA [Edceleon] (puzzle: Exclusion 4),–,34.3,–,–,–,–
"GUUAUCGCAGGAUAUUAAUACUUGUACAUGAGGAUCACCCAUGUUUAUUGGGAUUAAGAAUAAGAAGGGCGAUGAA [JR_Ex5_Sub003] (Eterna round: R97, puzzle: Exclusion 5)",–,–,–,52.8,–,27.8
"UUAGAAUUGUUAGGAUAUUAAUUAUUUUUUAGUAUGAUCUACAUGAGGAUCACCCAUGUUAAAUAUAAGAAGGAACGUUUUAUU [JR_ExcNG2_Sub097] (Eterna round: R96, puzzle: Exclusion NG 2)",–,–,–,–,40.7,–
"CUUGAGCAGGUAGGAUAUACGAUGUGUCGGCGAGUAGAAGGACCUGCGAUCCACUUGAGGAUCACCCAAGUUCGCAGGAGAACA [Mutated MS2 EX1.18] (Eterna round: R96, puzzle: Exclusion NG 1)",–,–,–,103,22,33.4
"AAAUUGGUAGAGGAUAUCGUACAGGAAACGAUGCGAGAAGGCUGCACAUGAGGAUCACCCAUGUUCAGUUGCGA [EX6 #41] (Eterna round: R97, puzzle: Exclusion 6)",–,–,–,17.9,–,17.6
